This note sets out measurements from publication PMC11240955, “Stability Engineering of Recombinant Secretory IgA” (International Journal of Molecular Sciences, 2024).

This test concerns the target T1, receptor-binding domain (RBD) of the SARS-CoV-2 spike, R319-F541, with a C-terminal 6xHis-tag (SARS-CoV-2, UniProt P0DTC2).
T1 construct: also called RBD-His; not shown: His6, C-terminal, kept
Description: ELISA. Conditions: both partners purified. In general terms: In an ELISA, binding on a coated surface is turned into a signal by an enzyme label.

B1: COVA2-15 monomeric IgA2m(1)_D133C (antibody, V domains shown)
VH: QVQLLESGGGLVQPGGSLRLSCAASGFTFSSYAMSWVRQAPGKGLEWASAISGSGGSTYYADSVEGRFTISRDNSKNTLYLQMNSLRAEDTAVYYCAKDTGYCGDDCYIKLIRGGPDYWGQGTLVTVSS
VL: DIVMTQSPLSLPVTLGQPASISCRSSQSLVYSDGNTFLNWFQQRPGQSPRRLIYQVSNRDSGVPDRFSGSGSGTDFTLKISRVEAEDVGVYYCMQGTHWPRTFGQGTKLEIK
notes: no single major 160 kDa peak in SEC; also called COVA2-15 mIgA2m(1)_D133C; mIgA2m(1)_D133C; copies: 2 + 2
Consider B1, for which the binding result is “binds”.
